Test results taken from article doi:10.1101/2025.11.11.687647 (bioRxiv, 2025).

Target: the molecule itself
Experiment: SEC

B1: Mycobacterium tuberculosis pyruvate carboxylase (MtPC), full-length (enzyme)
chain: MFSKVLVANRGEIAIRAFRAAYELGVGTVAVYPYEDRNSQHRLKADESYQIGDIGHPVHAYLSVDEIVATARRAGADAIYPGYGFLSENPDLAAACAAAGISFVGPSAEVLELAGNKSRAIAAAREAGLPVLMSSAPSASVDELLSVAAGMPFPLFVKAVAGGGGRGMRRVGDIAALPEAIEAASREAESAFGDPTVYLEQAVINPRHIEVQILADNLGDVIHLYERDCSVQRRHQKVIELAPAPHLDAELRYKMCVDAVAFARHIGYSCAGTVEFLLDERGEYVFIEMNPRVQVEHTVTEEITDVDLVASQLRIAAGETLEQLGLRQEDIAPHGAALQCRITTEDPANGFRPDTGRISALRTAGGAGVRLDGSTNLGAEISPYFDSMLVKLTCRGRDLPTAVSRARRAIAEFRIRGVSTNIPFLQAVLDDPDFRAGRVTTSFIDERPQLLTARASADRGTKILNFLADVTVNNPYGSRPSTIYPDDKLPDLDLRAAPPAGSKQRLVKLGPEGFARWLRESAAVGVTDTTFRDAHQSLLATRVRTSGLSRVAPYLARTMPQLLSVECWGGATYDVALRFLKEDPWERLATLRAAMPNICLQMLLRGRNTVGYTPYPEIVTSAFVQEATATGIDIFRIFDALNNIESMRPAIDAVRETGSAIAEVAMCYTGDLTDPGEQLYTLDYYLKLAEQIVDAGAHVLAIKDMAGLLRPPAAQRLVSALRSRFDLPVHLHTHDTPGGQLASYVAAWHAGADAVDGAAAPLAGTTSQPALSSIVAAAAHTEYDTGLSLSAVCALEPYWEALRKVYAPFESGLPGPTGRVYHHEIPGGQLSNLRQQAIALGLGDRFEEIEEAYAGADRVLGRLVKVTPTSKVVGDLALALVGAGVSADEFASDPARFGIPESVLGFLRGELGDPPGGWPEPLRTAALAGRGAARPTAQLAADDEIALSSVGAKRQATLNRLLFPSPTKEFNEHREAYGDTSQLSANQFFYGLRQGEEHRVKLERGVELLIGLEAISEPDERGMRTVMCILNGQLRPVLVRDRSIASAVPAAEKADRGNPGHIAAPFAGVVTVGVCVGERVGAGQTIATIEAMKMEAPITAPVAGTVERVAVSDTAQVEGGDLLVVVS
In the case of B1, the “stoichiometry N” value is reported as 4.
